Measurements from publication PMC12364357, “Glutamate dehydrogenase from Pantoea ananatis: A new bacterial enzyme with dual coenzyme specificity” (PLOS One, 2025).

Columns and labels:
Assay in all cases: purified protein
[1] = system: NC(=O)C1=CN([C@@H]2O[C@H](COP(=O)(O)OP(=O)(O)OC[C@H]3O[C@@H](n4cnc5c(N)ncnc54)[C@H](O)[C@@H]3O)[C@@H](O)[C@H]2O)C=CC1; settings: reductive amination, 5 mM α-KG, 50 mM NH4Cl, 80 mM Tris-HCl pH 8.0, 25 °C, pH 8.0
[2] = system: NC(=O)c1ccc[n+]([C@@H]2O[C@H](COP(=O)(O)OP(=O)(O)OC[C@H]3O[C@@H](n4cnc5c(N)ncnc54)[C@H](OP(=O)(O)O)[C@@H]3O)[C@@H](O)[C@H]2O)c1; settings: oxidative deamination, 150 mM L-Glu, 80 mM imidazole pH 6.0, 25 °C, pH 6.0
O=C(O)CCC(=O)C(=O)O = settings: reductive amination, 0.2 mM NADH, 50 mM NH4Cl, 80 mM Tris-HCl pH 8.0, 25 °C, pH 8.0
[3] = system: NC(=O)c1ccc[n+]([C@@H]2O[C@H](COP(=O)(O)OP(=O)(O)OC[C@H]3O[C@@H](n4cnc5c(N)ncnc54)[C@H](O)[C@@H]3O)[C@@H](O)[C@H]2O)c1; settings: oxidative deamination, 150 mM L-Glu, 80 mM CHES pH 9.5, 25 °C, pH 9.5
[4] = system: NC(=O)C1=CN([C@@H]2O[C@H](COP(=O)(O)OP(=O)(O)OC[C@H]3O[C@@H](n4cnc5c(N)ncnc54)[C@H](OP(=O)(O)O)[C@@H]3O)[C@@H](O)[C@H]2O)C=CC1; settings: reductive amination, 5 mM α-KG, 50 mM NH4Cl, 80 mM Tris-HCl pH 8.0, 25 °C, pH 8.0

GdhPa (Pantoea ananatis LMG 5342) was tested, and the Km [1] was 70 ± 14 µM, the Vmax [1] was 5.43 µmol/min/mg and the kcat [1] was 4.21 s⁻¹. The kcat/Km [1] was 60100 M⁻¹ s⁻¹, the Km [2] was 440 ± 50 µM and the Vmax [2] was 0.67 µmol/min/mg. For the same substance, the kcat [2] was 0.52 s⁻¹, the kcat/Km [2] was 1180 M⁻¹ s⁻¹ and the Km (O=C(O)CCC(=O)C(=O)O) was 1300 ± 210 µM. For the same substance, the Vmax (O=C(O)CCC(=O)C(=O)O) was 5.93 µmol/min/mg, the kcat (O=C(O)CCC(=O)C(=O)O) was 4.6 s⁻¹ and the kcat/Km (O=C(O)CCC(=O)C(=O)O) was 3540 M⁻¹ s⁻¹. For the same substance, the Km [3] was 900 ± 60 µM, the Vmax [3] was 11.6 µmol/min/mg and the kcat [3] was 8.97 s⁻¹. It also gave a kcat/Km [3] of 9960 M⁻¹ s⁻¹, a Km [4] of 78 ± 17 µM and a Vmax [4] of 6.29 µmol/min/mg. For the same substance, the kcat [4] was 4.87 s⁻¹ and the kcat/Km [4] was 62500 M⁻¹ s⁻¹.
